Measured values taken from IntAct's records for PubMed 25910212.

B1: Phytanoyl-CoA dioxygenase, peroxisomal (Homo sapiens), O14832 (parent)
chain: MEQLRAAARLQIVLGHLGRPSAGAVVAHPTSGTISSASFHPQQFQYTLDNNVLTLEQRKFYEENGFLVIKNLVPDADIQRFRNEFEKICRKEVKPLGLTVMRDVTISKSEYAPSEKMITKVQDFQEDKELFRYCTLPEILKYVECFTGPNIMAMHTMLINKPPDSGKKTSRHPLHQDLHYFPFRPSDLIVCAWTAMEHISRNNGCLVVLPGTHKGSLKPHDYPKWEGGVNKMFHGIQDYEENKARVHLVMEKGDTVFFHPLLIHGSGQNKTQGFRKAISCHFASADCHYIDVKGTSQENIEKEVVGIAHKFFGAENSVNLKDIWMFRARLVKGERTNL
B2: Fibulin-5 (Homo sapiens), Q9UBX5 (parent)
chain: MPGIKRILTVTILALCLPSPGNAQAQCTNGFDLDRQSGQCLDIDECRTIPEACRGDMMCVNQNGGYLCIPRTNPVYRGPYSNPYSTPYSGPYPAAAPPLSAPNYPTISRPLICRFGYQMDESNQCVDVDECATDSHQCNPTQICINTEGGYTCSCTDGYWLLEGQCLDIDECRYGYCQQLCANVPGSYSCTCNPGFTLNEDGRSCQDVNECATENPCVQTCVNTYGSFICRCDPGYELEEDGVHCSDMDECSFSEFLCQHECVNQPGTYFCSCPPGYILLDDNRSCQDINECEHRNHTCNLQQTCYNLQGGFKCIDPIRCEEPYLRISDNRCMCPAENPGCRDQPFTILYRDMDVVSGRSVPADIFQMQATTRYPGAYYIFQIKSGNEGREFYMRQTGPISATLVMTRPIKGPREIQLDLEMITVNTVINFRGSSVIRLRIYVSQYPF
B3: Cyclin-dependent kinase 4 (Homo sapiens), P11802 (parent)
chain: MATSRYEPVAEIGVGAYGTVYKARDPHSGHFVALKSVRVPNGGGGGGGLPISTVREVALLRRLEAFEHPNVVRLMDVCATSRTDREIKVTLVFEHVDQDLRTYLDKAPPPGLPAETIKDLMRQFLRGLDFLHANCIVHRDLKPENILVTSGGTVKLADFGLARIYSYQMALTPVVVTLWYRAPEVLLQSTYATPVDMWSVGCIFAEMFRRKPLFCGNSEADQLGKIFDLIGLPPEDDWPRDVSLPRGAFPPRGPRPVQSVVPEMEESGAQLLLEMLTFNPHKRISAFRALQHSYLHKDEGNPE
partner: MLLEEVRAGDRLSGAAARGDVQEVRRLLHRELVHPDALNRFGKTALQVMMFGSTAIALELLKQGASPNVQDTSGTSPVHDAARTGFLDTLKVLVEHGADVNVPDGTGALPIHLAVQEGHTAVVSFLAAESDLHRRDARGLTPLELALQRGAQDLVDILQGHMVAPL
B4: Multifunctional procollagen lysine hydroxylase and glycosyltransferase LH3 (Homo sapiens), O60568 (parent)
chain: MTSSGPGPRFLLLLPLLLPPAASASDRPRGRDPVNPEKLLVITVATAETEGYLRFLRSAEFFNYTVRTLGLGEEWRGGDVARTVGGGQKVRWLKKEMEKYADREDMIIMFVDSYDVILAGSPTELLKKFVQSGSRLLFSAESFCWPEWGLAEQYPEVGTGKRFLNSGGFIGFATTIHQIVRQWKYKDDDDDQLFYTRLYLDPGLREKLSLNLDHKSRIFQNLNGALDEVVLKFDRNRVRIRNVAYDTLPIVVHGNGPTKLQLNYLGNYVPNGWTPEGGCGFCNQDRRTLPGGQPPPRVFLAVFVEQPTPFLPRFLQRLLLLDYPPDRVTLFLHNNEVFHEPHIADSWPQLQDHFSAVKLVGPEEALSPGEARDMAMDLCRQDPECEFYFSLDADAVLTNLQTLRILIEENRKVIAPMLSRHGKLWSNFWGALSPDEYYARSEDYVELVQRKRVGVWNVPYISQAYVIRGDTLRMELPQRDVFSGSDTDPDMAFCKSFRDKGIFLHLSNQHEFGRLLATSRYDTEHLHPDLWQIFDNPVDWKEQYIHENYSRALEGEGIVEQPCPDVYWFPLLSEQMCDELVAEMEHYGQWSGGRHEDSRLAGGYENVPTVDIHMKQVGYEDQWLQLLRTYVGPMTESLFPGYHTKARAVMNFVVRYRPDEQPSLRPHHDSSTFTLNVALNHKGLDYEGGGCRFLRYDCVISSPRKGWALLHPGRLTHYHEGLPTTWGTRYIMVSFVDP
partner: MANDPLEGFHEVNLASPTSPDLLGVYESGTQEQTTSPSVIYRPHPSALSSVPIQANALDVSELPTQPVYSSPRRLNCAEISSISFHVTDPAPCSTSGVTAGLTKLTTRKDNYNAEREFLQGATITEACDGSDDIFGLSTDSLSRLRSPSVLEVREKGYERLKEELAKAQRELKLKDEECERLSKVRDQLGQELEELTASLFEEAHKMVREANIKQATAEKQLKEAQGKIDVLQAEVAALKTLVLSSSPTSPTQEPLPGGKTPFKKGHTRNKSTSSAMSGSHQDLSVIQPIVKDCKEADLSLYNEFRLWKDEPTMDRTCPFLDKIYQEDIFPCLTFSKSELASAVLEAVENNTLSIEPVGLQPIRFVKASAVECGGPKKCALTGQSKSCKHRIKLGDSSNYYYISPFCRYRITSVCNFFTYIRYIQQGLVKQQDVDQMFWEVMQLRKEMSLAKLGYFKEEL
B5: EF-hand domain-containing protein 1 (Homo sapiens), Q5JVL4 (parent)
chain: MVSNPVHGLPFLPGTSFKDSTKTAFHRSQTLSYRNGYAIVRRPTVGIGGDRLQFNQLSQAELDELASKAPVLTYGQPKQAPPADFIPAHVAFDKKVLKFDAYFQEDVPMSTEEQYRIRQVNIYYYLEDDSMSVIEPVVENSGILQGKLIKRQRLAKNDRGDHYHWKDLNRGINITIYGKTFRVVDCDQFTQVFLESQGIELNPPEKMALDPYTELRKQPLRKYVTPSDFDQLKQFLTFDKQVLRFYAIWDDTDSMYGECRTYIIHYYLMDDTVEIREVHERNDGRDPFPLLMNRQRVPKVLVENAKNFPQCVLEISDQEVLEWYTAKDFIVGKSLTILGRTFFIYDCDPFTRRYYKEKFGITDLPRIDVSKREPPPVKQELPPYNGFGLVEDSAQNCFALIPKAPKKDVIKMLVNDNKVLRYLAVLESPIPEDKDRRFVFSYFLATDMISIFEPPVRNSGIIGGKYLGRTKVVKPYSTVDNPVYYGPSDFFIGAVIEVFGHRFIILDTDEYVLKYMESNAAQYSPEALASIQNHVRKREAPAPEAESKQTEKDPGVQELEALIDTIQKQLKDHSCKDNIREAFQIYDKEASGYVDRDMFFKICESLNVPVDDSLVKELIRMCSHGEGKINYYNFVRAFSN
partner: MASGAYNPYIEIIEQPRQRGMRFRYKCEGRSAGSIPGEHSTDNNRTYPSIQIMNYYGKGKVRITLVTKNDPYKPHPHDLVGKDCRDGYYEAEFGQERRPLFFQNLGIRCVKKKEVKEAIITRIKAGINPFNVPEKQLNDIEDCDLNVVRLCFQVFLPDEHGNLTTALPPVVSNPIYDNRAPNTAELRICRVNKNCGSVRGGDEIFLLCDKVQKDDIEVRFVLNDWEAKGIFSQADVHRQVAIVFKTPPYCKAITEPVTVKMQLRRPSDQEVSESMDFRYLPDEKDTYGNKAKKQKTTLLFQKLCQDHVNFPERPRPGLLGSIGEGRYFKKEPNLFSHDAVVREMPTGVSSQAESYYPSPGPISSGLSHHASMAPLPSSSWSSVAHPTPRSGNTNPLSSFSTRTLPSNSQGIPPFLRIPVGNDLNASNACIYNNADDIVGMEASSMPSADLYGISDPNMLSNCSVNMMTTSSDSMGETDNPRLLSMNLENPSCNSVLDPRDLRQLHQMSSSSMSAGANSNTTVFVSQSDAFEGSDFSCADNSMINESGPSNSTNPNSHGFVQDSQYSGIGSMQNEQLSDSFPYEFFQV
B6: Fructose-bisphosphate aldolase A (Homo sapiens), P04075-2 (parent)
chain: MARRKPEGSSFNMTHLSMAMAFSFPPVASGQLHPQLGNTQHQTELGKELATTSTMPYQYPALTPEQKKELSDIAHRIVAPGKGILAADESTGSIAKRLQSIGTENTEENRRFYRQLLLTADDRVNPCIGGVILFHETLYQKADDGRPFPQVIKSKGGVVGIKVDKGVVPLAGTNGETTTQGLDGLSERCAQYKKDGADFAKWRCVLKIGEHTPSALAIMENANVLARYASICQQNGIVPIVEPEILPDGDHDLKRCQYVTEKVLAAVYKALSDHHIYLEGTLLKPNMVTPGHACTQKFSHEEIAMATVTALRRTVPPAVTGITFLSGGQSEEEASINLNAINKCPLLKPWALTFSYGRALQASALKAWGGKKENLKAAQEEYVKRALANSLACQGKYTPSGQAGAAASESLFVSNHAY
partner: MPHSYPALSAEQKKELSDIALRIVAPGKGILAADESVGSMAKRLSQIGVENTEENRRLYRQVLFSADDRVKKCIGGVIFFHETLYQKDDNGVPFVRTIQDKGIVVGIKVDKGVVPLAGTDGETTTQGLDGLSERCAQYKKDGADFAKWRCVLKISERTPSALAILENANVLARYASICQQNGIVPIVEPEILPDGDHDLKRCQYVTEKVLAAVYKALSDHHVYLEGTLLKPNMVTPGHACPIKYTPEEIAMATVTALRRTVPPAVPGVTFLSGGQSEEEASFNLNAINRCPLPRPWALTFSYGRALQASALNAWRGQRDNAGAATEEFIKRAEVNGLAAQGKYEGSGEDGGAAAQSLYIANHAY
B7: Three-prime repair exonuclease 1 (Homo sapiens), Q9NSU2-1 (parent)
chain: MGPGARRQGRIVQGRPEMCFCPPPTPLPPLRILTLGTHTPTPCSSPGSAAGTYPTMGSQALPPGPMQTLIFFDMEATGLPFSQPKVTELCLLAVHRCALESPPTSQGPPPTVPPPPRVVDKLSLCVAPGKACSPAASEITGLSTAVLAAHGRQCFDDNLANLLLAFLRRQPQPWCLVAHNGDRYDFPLLQAELAMLGLTSALDGAFCVDSITALKALERASSPSEHGPRKSYSLGSIYTRLYGQSPPDSHTAEGDVLALLSICQWRPQALLRWVDAHARPFGTIRPMYGVTASARTKPRPSAVTTTAHLATTRNTSPSLGESRGTKDLPPVKDPGALSREGLLAPLGLLAILTLAVATLYGLSLATPGE
partner: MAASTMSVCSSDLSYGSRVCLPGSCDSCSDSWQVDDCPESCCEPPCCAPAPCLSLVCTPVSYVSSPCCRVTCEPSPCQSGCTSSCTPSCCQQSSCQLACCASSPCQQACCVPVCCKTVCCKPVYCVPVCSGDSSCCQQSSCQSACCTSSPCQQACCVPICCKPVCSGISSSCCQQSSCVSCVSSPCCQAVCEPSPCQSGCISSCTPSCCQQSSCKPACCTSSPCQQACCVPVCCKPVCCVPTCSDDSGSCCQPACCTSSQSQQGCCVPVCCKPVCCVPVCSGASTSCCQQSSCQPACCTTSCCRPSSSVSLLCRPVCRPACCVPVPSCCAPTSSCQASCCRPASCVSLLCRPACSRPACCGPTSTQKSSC

Variants of: B1
Details: with fam9b_human FAM9B

effect of a mutation on the interaction | Variant
disrupting interaction strength | I199F
with no effect | N269H

Variants of: B2
Details: with otx1_human OTX1, P32242
otx1_human OTX1, P32242, sequence (P32242 whole entry): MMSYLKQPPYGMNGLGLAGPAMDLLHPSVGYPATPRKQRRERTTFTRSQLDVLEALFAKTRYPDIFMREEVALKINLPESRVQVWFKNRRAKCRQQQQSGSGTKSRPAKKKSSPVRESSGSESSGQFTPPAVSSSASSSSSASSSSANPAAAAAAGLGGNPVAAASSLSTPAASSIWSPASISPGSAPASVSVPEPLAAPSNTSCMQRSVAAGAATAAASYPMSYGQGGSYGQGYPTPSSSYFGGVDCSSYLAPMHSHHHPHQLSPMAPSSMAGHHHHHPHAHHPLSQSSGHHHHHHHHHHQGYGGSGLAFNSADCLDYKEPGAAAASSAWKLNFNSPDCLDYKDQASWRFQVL

effect of a mutation on the interaction | Variant
disrupting interaction strength | V60L

Variants of: B2
Details: with meox2_human MEOX2, P50222
meox2_human MEOX2, P50222, sequence (P50222 whole entry): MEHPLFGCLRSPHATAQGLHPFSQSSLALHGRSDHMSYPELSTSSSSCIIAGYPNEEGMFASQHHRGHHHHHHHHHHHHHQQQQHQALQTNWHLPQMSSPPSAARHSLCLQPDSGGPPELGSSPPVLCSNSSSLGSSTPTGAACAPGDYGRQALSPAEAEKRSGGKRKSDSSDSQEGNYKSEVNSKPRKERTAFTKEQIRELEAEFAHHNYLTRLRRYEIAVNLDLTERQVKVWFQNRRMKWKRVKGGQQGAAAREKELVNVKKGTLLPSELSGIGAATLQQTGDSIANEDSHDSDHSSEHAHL

effect of a mutation on the interaction | Variant
disrupting interaction strength | V60L

Variants of: B3
Details: with cdn2d_human CDKN2D

Variant | effect of a mutation on the interaction
R24H | with no effect
S52N | with no effect

Second part, the variant after the results:

effect of a mutation on the interaction | Variant
with no effect | R24C
with no effect | N41S

Variants of: B4
Details: with RAB3IP

effect of a mutation on the interaction | Variant
with no effect | N223S

Variants of: B5
Details: with REL

Variant | effect of a mutation on the interaction
A394S | disrupting interaction strength
R221H | disrupting interaction strength
P77T | disrupting interaction strength
M448T | with no effect

Further lines, results first:

effect of a mutation on the interaction | Variant
with no effect | R159W
disrupting interaction strength | T508R

Variants of: B6
Details: with aldoc_human ALDOC

effect of a mutation on the interaction | Variant
with no effect | D183G
disrupting interaction strength | E261K
with no effect | C393Y

Variants of: B7
Details: with kr107_human KRTAP10-7, P60409

effect of a mutation on the interaction | Variant
with no effect | G361A
with no effect | R169H
with no effect | A213V
